Data taken from PMC4490410.

Legend:
Conditions in all cases: remark: other sources report otherwise
[1] = biological target: T1, DJ-1 (endogenous, human) (human (endogenous in human brain, M17D cells, iPSC-derived neurons)), Q99497; test: cross-linking; intact neurons differentiated from A53T patient iPSCs or the corrected isogenic line; DSG; sequential extraction, cytosol blotted with 2F12, C20, Syn1
T1 chain: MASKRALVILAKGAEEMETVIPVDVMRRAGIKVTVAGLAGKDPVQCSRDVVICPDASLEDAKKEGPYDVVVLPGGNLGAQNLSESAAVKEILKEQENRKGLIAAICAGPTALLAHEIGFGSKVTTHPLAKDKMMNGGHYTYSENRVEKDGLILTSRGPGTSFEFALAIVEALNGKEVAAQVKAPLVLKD

[2] = biological target: T1, DJ-1 (endogenous, human) (human …); test: cross-linking; intact-cell crosslinking of minced, washed fresh human cortical biopsy; 1 mM DSG at increasing volume-to-protein ratio (DSP reduced by βME for total αS), 37 °C 30 min; then PBS ('cytosol') and TX-100 ('membrane') fractions, western blot
[3] = biological target: T1, DJ-1 (endogenous, human) (human …); test: cross-linking; intact M17D cells transiently transfected with untagged αS variants; 1 mM DSG or 1.75 mM DSP, 30 min 37 °C; cytosol (PBS) or PBS/1% TX-100 lysate, western blot (Syn1) densitometry; values of the fPD mutants from a meta-analysis of DSG and DSP experiments

Measured: stoichiometry N

B1: DJ-1 (endogenous, human), Q99497 1-189 (natural protein)
chain: MASKRALVILAKGAEEMETVIPVDVMRRAGIKVTVAGLAGKDPVQCSRDVVICPDASLEDAKKEGPYDVVVLPGGNLGAQNLSESAAVKEILKEQENRKGLIAAICAGPTALLAHEIGFGSKVTTHPLAKDKMMNGGHYTYSENRVEKDGLILTSRGPGTSFEFALAIVEALNGKEVAAQVKAPLVLKD
2: all assays above
